Reference: patent US20220143024A1, “METHODS OF USING IMIPRIDONES” (Board of Regents, The University of Texas System, priority 2019, published 2022)

What was measured:
Assay in all cases: BioID-MS +ONC201
GRPEL1 (human) = GRPEL1 (human) (UniProt Q9HAV7)
ACN9 (human) = ACN9 (human) (UniProt Q9NRP4)
OXA1L (human) = OXA1L (human) (UniProt Q15070)
MRPS6 (human) = MRPS6 (human) (UniProt P82932)
NDUFA2 (human) = NDUFA2 (human) (UniProt O43678)
SUCLG1 (human) = SUCLG1 (human) (UniProt P53597)
GATC (human) = GATC (human) (UniProt O43716)
Sequence of GATC (human) (O43716 58-136 limits assumed): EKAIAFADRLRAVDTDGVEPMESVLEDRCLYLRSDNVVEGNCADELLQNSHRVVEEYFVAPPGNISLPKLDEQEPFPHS

COQ6 (human) = COQ6 (human) (UniProt Q9Y2Z9)
TFAM (human) = TFAM (human) (UniProt Q00059)
Sequence of TFAM (human) (Q00059 43-246 limits assumed): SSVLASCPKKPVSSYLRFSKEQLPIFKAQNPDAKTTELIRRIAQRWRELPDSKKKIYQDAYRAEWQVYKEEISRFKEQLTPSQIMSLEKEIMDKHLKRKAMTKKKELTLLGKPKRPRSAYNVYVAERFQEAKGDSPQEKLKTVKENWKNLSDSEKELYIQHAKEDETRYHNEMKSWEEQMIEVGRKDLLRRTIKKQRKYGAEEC

PCK2 (human) = PCK2 (human) (UniProt Q16822)
MICU2 (human) = MICU2 (human) (UniProt Q8IYU8)
MRPL47 (human) = MRPL47 (human) (UniProt Q9HD33)
MARS2 (human) = MARS2 (human) (UniProt Q96GW9)
SFXN4 (human) = SFXN4 (human) (UniProt Q6P4A7)
Sequence of SFXN4 (human) (Q6P4A7 2-337 limits assumed): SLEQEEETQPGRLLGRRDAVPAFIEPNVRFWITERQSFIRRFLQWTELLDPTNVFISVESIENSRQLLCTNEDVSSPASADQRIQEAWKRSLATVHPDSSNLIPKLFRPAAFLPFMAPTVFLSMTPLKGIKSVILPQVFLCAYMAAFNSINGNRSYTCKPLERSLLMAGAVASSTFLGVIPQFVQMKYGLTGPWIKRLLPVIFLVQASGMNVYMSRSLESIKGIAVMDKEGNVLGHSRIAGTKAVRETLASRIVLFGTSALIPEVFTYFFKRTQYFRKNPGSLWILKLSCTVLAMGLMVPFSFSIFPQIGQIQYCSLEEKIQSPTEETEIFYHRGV

MRM3 (human) = MRM3 (human) (UniProt Q9HC36)
FOXRED1 (human) = FOXRED1 (human) (UniProt Q96CU9)
SSBP1 (human) = SSBP1 (human) (UniProt Q04837)
Sequence of SSBP1 (human) (Q04837 17-148 limits assumed): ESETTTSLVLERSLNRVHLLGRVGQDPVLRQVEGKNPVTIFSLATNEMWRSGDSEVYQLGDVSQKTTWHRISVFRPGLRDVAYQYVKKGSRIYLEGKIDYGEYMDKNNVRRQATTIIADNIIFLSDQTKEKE

ADCK3 (human) = ADCK3 (human) (UniProt Q8NI60)
ACADM (human) = ACADM (human) (UniProt P11310)
FMC1 (human) = FMC1 (human) (UniProt Q96HJ9)
MRPL21 (human) = MRPL21 (human) (UniProt Q7Z2W9)
GCDH (human) = GCDH (human) (UniProt Q92947)
NARS2 (human) = NARS2 (human) (UniProt Q96I59)
MRPS7 (human) = MRPS7 (human) (UniProt Q9Y2R9)
NFUl (human) = NFUl (human) (UniProt Q9UMS0)
Sequence of NFUl (human) (Q9UMS0 10-254 limits assumed): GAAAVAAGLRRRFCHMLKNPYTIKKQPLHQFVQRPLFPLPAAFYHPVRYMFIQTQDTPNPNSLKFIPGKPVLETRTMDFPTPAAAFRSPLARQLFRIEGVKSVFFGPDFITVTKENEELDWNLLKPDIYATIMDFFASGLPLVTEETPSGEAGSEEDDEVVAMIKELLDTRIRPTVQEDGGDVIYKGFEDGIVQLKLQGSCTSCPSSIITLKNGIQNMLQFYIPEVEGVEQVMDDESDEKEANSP

AARS2 (human) = AARS2 (human) (UniProt Q5JTZ9)
HINT2 (human) = HINT2 (human) (UniProt Q9BX68)
Sequence of HINT2 (human) (Q9BX68 18-163 limits assumed): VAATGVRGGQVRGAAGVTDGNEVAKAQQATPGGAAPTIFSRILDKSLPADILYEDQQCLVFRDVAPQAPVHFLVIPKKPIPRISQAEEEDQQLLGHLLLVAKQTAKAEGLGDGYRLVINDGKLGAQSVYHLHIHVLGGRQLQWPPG

ATPAF2 (human) = ATPAF2 (human) (UniProt Q8N5M1)
Sequence of ATPAF2 (human) (Q8N5M1 41-289 limits assumed): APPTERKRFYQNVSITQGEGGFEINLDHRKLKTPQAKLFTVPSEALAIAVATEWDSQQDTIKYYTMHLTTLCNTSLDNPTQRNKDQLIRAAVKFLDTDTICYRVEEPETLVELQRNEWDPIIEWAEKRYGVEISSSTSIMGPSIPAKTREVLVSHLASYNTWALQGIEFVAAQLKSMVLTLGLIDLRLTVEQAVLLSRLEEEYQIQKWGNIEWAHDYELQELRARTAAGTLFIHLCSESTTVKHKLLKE

ACSS1 (human) = ACSS1 (human) (UniProt Q9NUB1)
Sequence of ACSS1 (human) (Q9NUB1 38-689 limits assumed): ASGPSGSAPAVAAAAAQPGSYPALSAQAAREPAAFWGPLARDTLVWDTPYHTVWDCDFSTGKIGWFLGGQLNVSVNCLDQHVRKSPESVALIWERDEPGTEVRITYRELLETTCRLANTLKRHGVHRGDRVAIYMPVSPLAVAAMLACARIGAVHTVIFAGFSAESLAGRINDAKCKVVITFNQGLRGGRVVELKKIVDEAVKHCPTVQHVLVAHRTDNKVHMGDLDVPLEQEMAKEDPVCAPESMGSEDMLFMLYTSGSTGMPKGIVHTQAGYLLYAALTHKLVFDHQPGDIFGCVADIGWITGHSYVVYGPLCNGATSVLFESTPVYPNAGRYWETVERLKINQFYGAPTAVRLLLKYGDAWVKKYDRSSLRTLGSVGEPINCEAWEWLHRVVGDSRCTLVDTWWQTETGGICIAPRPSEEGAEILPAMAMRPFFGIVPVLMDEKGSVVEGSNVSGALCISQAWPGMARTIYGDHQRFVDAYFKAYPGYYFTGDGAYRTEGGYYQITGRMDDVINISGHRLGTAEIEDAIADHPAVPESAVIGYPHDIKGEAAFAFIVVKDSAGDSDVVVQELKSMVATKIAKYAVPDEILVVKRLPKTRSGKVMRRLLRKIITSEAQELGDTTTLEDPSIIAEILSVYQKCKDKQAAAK

NDUFS7 (human) = NDUFS7 (human) (UniProt O75251)
NUDT19 (human) = NUDT19 (human) (UniProt A8MXV4)
Sequence of NUDT19 (human) (A8MXV4 whole entry): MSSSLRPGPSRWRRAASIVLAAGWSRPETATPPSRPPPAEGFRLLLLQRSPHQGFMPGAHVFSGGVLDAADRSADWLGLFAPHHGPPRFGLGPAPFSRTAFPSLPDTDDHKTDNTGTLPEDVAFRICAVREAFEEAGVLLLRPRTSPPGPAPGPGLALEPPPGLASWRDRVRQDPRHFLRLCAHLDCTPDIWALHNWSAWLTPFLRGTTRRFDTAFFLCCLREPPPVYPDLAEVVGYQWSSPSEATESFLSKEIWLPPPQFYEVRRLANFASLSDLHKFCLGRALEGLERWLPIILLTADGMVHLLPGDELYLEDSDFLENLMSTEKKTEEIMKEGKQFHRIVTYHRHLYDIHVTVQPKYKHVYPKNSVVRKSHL

THEM4 (human) = THEM4 (human) (UniProt Q5T1C6)
MRPS25 (human) = MRPS25 (human) (UniProt P82663)
MRPL54 (human) = MRPL54 (human) (UniProt Q6P161)
ALDH1L2 (human) = ALDH1L2 (human) (UniProt Q3SY69)
CRAT (human) = CRAT (human) (UniProt P43155)
HSPE1 (human) = HSPE1 (human) (UniProt P61604)
EARS2 (human) = EARS2 (human) (UniProt Q5JPH6)
GBAS (human) = GBAS (human) (UniProt O75323)
RPS15A (human) = RPS15A (human) (UniProt P62244)
GLUD1 (human) = GLUD1 (human) (UniProt P00367)
SUCLA2 (human) = SUCLA2 (human) (UniProt Q9P2R7)
Sequence of SUCLA2 (human) (Q9P2R7 53-463 limits assumed): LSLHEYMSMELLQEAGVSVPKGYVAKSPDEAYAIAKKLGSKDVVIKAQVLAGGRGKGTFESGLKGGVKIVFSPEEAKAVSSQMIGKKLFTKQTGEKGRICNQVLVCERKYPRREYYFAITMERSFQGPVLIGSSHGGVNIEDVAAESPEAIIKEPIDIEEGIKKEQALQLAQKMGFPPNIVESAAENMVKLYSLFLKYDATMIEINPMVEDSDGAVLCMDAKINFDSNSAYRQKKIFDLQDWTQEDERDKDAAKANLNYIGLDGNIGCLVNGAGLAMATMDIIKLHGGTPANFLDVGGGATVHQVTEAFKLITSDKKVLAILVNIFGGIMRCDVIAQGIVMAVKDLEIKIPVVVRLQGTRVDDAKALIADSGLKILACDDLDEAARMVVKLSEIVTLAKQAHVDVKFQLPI

COX5B (human) = COX5B (human) (UniProt P10606)
LYRM4 (human) = LYRM4 (human) (UniProt Q9HD34)
Sequence of LYRM4 (human) (Q9HD34 whole entry): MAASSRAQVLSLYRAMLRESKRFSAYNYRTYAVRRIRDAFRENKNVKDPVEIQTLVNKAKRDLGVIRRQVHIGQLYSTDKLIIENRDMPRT

PAM16 (human) = PAM16 (human) (UniProt Q9Y3D7)
Sequence of PAM16 (human) (Q9Y3D7 whole entry): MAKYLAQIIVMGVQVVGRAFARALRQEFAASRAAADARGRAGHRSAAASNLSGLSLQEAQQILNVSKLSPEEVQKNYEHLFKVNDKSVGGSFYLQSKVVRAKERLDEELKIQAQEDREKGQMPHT

METTL17 (human) = METTL17 (human) (UniProt Q9H7H0)
Sequence of METTL17 (human) (Q9H7H0 28-456 limits assumed): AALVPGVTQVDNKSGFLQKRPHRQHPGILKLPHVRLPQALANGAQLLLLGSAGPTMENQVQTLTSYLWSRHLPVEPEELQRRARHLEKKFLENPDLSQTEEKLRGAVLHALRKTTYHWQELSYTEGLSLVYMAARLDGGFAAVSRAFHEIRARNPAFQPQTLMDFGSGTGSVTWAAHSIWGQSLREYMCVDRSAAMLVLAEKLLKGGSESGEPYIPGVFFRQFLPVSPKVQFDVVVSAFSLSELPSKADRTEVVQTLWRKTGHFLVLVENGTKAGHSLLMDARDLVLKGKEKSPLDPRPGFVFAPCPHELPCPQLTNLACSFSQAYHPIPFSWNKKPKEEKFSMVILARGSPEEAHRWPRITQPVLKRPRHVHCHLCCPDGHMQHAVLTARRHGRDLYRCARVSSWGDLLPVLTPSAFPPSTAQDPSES

UQCRB (human) = UQCRB (human) (UniProt P14927)
HADH (human) = HADH (human) (UniProt Q16836)
FECH (human) = FECH (human) (UniProt P22830)
Sequence of FECH (human) (P22830 55-423 limits assumed): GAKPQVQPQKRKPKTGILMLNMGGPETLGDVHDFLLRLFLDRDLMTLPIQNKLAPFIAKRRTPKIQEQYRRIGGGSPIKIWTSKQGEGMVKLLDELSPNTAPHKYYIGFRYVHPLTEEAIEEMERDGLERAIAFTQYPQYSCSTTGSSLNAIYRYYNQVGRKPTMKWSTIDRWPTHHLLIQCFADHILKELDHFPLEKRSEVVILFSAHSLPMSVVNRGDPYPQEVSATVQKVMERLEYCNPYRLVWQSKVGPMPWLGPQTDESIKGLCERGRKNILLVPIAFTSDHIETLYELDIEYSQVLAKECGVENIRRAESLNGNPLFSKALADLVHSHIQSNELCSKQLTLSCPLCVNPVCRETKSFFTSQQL

NDUFAF4 (human) = NDUFAF4 (human) (UniProt Q9P032)
RG9MTD1 (human) = RG9MTD1 (human) (UniProt Q7L0Y3)
Sequence of RG9MTD1 (human) (Q7L0Y3 40-403 limits assumed): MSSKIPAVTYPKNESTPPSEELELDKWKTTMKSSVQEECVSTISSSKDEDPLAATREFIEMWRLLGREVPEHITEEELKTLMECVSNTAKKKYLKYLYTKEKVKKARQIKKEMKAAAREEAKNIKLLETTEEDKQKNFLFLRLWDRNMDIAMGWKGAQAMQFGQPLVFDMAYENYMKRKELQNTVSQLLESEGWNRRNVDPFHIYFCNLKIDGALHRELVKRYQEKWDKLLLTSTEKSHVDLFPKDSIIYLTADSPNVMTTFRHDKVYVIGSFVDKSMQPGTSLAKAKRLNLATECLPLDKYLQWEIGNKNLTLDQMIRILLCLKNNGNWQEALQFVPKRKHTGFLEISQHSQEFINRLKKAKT

Sequence of SUCLG1 (human) (P53597 41-346 limits assumed): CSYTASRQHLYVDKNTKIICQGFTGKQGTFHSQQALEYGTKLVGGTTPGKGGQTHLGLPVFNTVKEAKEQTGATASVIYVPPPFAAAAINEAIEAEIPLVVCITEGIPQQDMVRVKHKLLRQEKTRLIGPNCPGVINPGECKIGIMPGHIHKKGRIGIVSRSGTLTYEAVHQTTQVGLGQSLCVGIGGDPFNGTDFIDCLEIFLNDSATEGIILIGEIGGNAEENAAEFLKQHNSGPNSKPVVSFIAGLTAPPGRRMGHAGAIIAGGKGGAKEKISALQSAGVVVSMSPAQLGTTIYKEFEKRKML
Sequence of GRPEL1 (human) (Q9HAV7 28-217 limits assumed): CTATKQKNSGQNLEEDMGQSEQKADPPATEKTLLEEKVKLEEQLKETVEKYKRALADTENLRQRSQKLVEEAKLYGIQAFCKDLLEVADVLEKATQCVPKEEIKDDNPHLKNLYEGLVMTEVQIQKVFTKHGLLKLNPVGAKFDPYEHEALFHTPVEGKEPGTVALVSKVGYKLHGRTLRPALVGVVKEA

Log2 Fold change (vs control) (GRPEL1 (human)): -5.52 log2 | Log2 Fold change (vs control) (ACN9 (human)): -5.46 log2 | Log2 Fold change (vs control) (OXA1L (human)): -3 log2 | Log2 Fold change (vs control) (MRPS6 (human)): -4.52 log2 | Log2 Fold change (vs control) (NDUFA2 (human)): -6.32 log2 | Log2 Fold change (vs control) (SUCLG1 (human)): -1.44 log2 | Log2 Fold change (vs control) (GATC (human)): -5.98 log2 | Log2 Fold change (vs control) (COQ6 (human)): -3.7 log2 | Log2 Fold change (vs control) (TFAM (human)): -1.61 log2 | Log2 Fold change (vs control) (PCK2 (human)): -5.32 log2 | Log2 Fold change (vs control) (MICU2 (human)): -4.31 log2 | Log2 Fold change (vs control) (MRPL47 (human)): -4.52 log2 | Log2 Fold change (vs control) (MARS2 (human)): -4.52 log2 | Log2 Fold change (vs control) (SFXN4 (human)): -0.58 log2 | Log2 Fold change (vs control) (MRM3 (human)): -1.62 log2 | Log2 Fold change (vs control) (FOXRED1 (human)): -4.09 log2 | Log2 Fold change (vs control) (SSBP1 (human)): 0.07 log2 | Log2 Fold change (vs control) (ADCK3 (human)): -1.91 log2 | Log2 Fold change (vs control) (ACADM (human)): -1.06 log2 | Log2 Fold change (vs control) (FMC1 (human)): -6.86 log2 | Log2 Fold change (vs control) (MRPL21 (human)): -4.52 log2 | Log2 Fold change (vs control) (GCDH (human)): -0.17 log2 | Log2 Fold change (vs control) (NARS2 (human)): -1.36 log2 | Log2 Fold change (vs control) (MRPS7 (human)): -2.77 log2 | Log2 Fold change (vs control) (NFUl (human)): -4.32 log2 | Log2 Fold change (vs control) (AARS2 (human)): -5.73 log2 | Log2 Fold change (vs control) (HINT2 (human)): -1.17 log2 | Log2 Fold change (vs control) (ATPAF2 (human)): -2.58 log2 | Log2 Fold change (vs control) (ACSS1 (human)): -4.46 log2 | Log2 Fold change (vs control) (NDUFS7 (human)): -1.81 log2 | Log2 Fold change (vs control) (NUDT19 (human)): -3.1 log2 | Log2 Fold change (vs control) (THEM4 (human)): -0.88 log2 | Log2 Fold change (vs control) (MRPS25 (human)): -3.91 log2 | Log2 Fold change (vs control) (MRPL54 (human)): -4 log2 | Log2 Fold change (vs control) (ALDH1L2 (human)): -6.04 log2 | Log2 Fold change (vs control) (CRAT (human)): -4 log2 | Log2 Fold change (vs control) (HSPE1 (human)): -0.36 log2 | Log2 Fold change (vs control) (EARS2 (human)): -1.29 log2 | Log2 Fold change (vs control) (GBAS (human)): -2.79 log2 | Log2 Fold change (vs control) (RPS15A (human)): -0.69 log2 | Log2 Fold change (vs control) (GLUD1 (human)): -1.63 log2 | Log2 Fold change (vs control) (SUCLA2 (human)): -0.71 log2 | Log2 Fold change (vs control) (COX5B (human)): -5 log2 | Log2 Fold change (vs control) (LYRM4 (human)): 0 log2 | Log2 Fold change (vs control) (PAM16 (human)): -5.91 log2 | Log2 Fold change (vs control) (METTL17 (human)): -3.58 log2 | Log2 Fold change (vs control) (UQCRB (human)): -4.7 log2 | Log2 Fold change (vs control) (HADH (human)): -1.3 log2 | Log2 Fold change (vs control) (FECH (human)): -1.56 log2 | Log2 Fold change (vs control) (NDUFAF4 (human)): -1.11 log2 | Log2 Fold change (vs control) (RG9MTD1 (human)): -1.3 log2
Substance: FlagBirA-ClpP (WT) (from UniProt P06709 1-321; Q16740 57-277) (enzyme)
